4 molecules from patent US20210347913A1 (published 2021) can be followed below.

Positions count from the first letter of the chain named.

In general, EC50 refers to the concentration needed to bring the measured effect to its halfway point.

First the molecules themselves.
T1: PTK7 on PTK7 positive cell line SaOS-2 (osteosarcoma) (UniProt Q13308 31-1070)
T1 chain: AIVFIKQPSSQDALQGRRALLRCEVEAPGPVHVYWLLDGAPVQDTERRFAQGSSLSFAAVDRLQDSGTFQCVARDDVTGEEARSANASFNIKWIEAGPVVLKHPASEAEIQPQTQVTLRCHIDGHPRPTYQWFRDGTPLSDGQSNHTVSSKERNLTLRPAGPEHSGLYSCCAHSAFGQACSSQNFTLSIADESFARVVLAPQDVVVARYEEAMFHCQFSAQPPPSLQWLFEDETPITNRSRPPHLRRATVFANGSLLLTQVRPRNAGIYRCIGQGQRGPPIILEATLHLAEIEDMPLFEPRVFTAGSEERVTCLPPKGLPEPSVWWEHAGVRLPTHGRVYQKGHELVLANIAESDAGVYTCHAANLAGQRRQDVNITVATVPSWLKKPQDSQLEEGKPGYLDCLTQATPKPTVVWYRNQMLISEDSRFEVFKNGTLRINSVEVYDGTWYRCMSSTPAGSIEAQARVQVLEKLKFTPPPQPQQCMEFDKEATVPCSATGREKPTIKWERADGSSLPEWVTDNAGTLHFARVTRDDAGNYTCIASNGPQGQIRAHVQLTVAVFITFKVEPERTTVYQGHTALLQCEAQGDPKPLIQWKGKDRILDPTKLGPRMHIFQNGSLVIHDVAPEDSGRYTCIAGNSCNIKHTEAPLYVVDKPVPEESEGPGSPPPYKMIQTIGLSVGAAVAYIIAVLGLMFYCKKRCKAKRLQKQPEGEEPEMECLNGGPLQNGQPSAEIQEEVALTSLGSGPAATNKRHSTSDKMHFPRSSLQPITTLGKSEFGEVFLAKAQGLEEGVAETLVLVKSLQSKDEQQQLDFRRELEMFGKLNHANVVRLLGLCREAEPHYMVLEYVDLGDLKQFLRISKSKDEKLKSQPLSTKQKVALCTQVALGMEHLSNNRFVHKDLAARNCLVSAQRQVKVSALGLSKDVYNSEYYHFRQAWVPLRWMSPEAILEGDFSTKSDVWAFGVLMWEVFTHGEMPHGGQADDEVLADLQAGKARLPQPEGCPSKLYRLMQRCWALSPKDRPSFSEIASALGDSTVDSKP

B1: 181 M13 (antibody)
chain: QGCTYPPRFHMHWLCGSSGGSGGSGGSGGGPLGLAGGSSGQVQLVESGGGVVQPGRSLRLSCAASGFTFSSYGMHWVRQAPGKGLEWVAVIWDDGSNKYYVDSVKGRFTISRDNSKNTLYLQMNSLRAEDTAVYYCARDDYYGSGSFNSYYGTDVWGQGTTVTVSSGGGGSGGGGSGGGGSEIVLTQSPATLSLSPGERATLSCRASQSVSIYLAWYQQKPGQAPRLLIYDASNRATGIPARFSGSGSGTDFTLTISSLEPEDFAVYYCQQRSNWPPFTFGPGTKVDIKSAAAFVPVFLPAKPTTTPAPRPPTPAPTIASQPLSLRPEACRPAAGGAVHTRGLDFACDIYIWAPLAGTCGVLLLSLVITLYCNHRNRSKRSRLLHSDYMNMTPRRPGPTRKHYQPYAPPRDFAAYRSRVKFSRSADAPAYQQGQNQLYNELNLGRREEYDVLDKRRGRDPEMGGKPRRKNPQEGLYNELQKDKMAEAYSEIGMKGERRRGKGHDGLYQGLSTATKDTYDALHMQALPPR
B2: 181 M8 (antibody)
chain: B1 chain with C3W, T4C, Y5T, P6I, R8S, F9S, H10M, M11S, H12I, W13R
B3: 181 M4 (antibody)
chain: B1 chain with Y5F, P7N, R8T, F9T, H10M, M11Q, H12R, W13T, L14F
B4: 181 M3 (antibody)
chain: B1 chain with Y5M, R8S, F9P, H10R, M11S, H12K, W13V, L14I

In the first assay the target is T1, PTK7 on PTK7 positive cell line SaOS-2 …. The assay is described as follows: FACS binding SaOS-2; +MMP14. Background: A flow cytometer gives signals particle by particle.
For the molecule B1, it took 0.38 nM to reach a half-maximal effect (EC50). This lies in the sub-nanomolar range.

Molecule B2 came in with an EC50 of 0.8 nM.

The molecule B3 registered an EC50 of 0.41 nM.

The molecule B4 yielded an EC50 of 0.95 nM.

A further assay shares this target. The assay is described as follows: FACS binding SaOS-2.
For B1, the concentration giving a half-maximal response (EC50) is 40.9 nM.

B2 showed an EC50 of 101 nM.

Regarding B3, a half-maximal response (EC50) required 16.7 nM.

In turn, B4 yielded a concentration giving a half-maximal response (EC50) of 225 nM.

The next assay shares this target. Description: FACS binding SaOS-2; -MMP14.
As to B1, a half-maximal response (EC50) required 58.6 nM.

The molecule B2 returned an EC50 of 96.9 nM.

Turning to B3, the EC50 worked out at 20.8 nM.

In turn, B4 showed an EC50 of 406 nM.
